Data on one substance can be found in PMC5356265, “Increased enzymatic hydrolysis of sugarcane bagasse by a novel glucose- and xylose-stimulated β-glucosidase from Anoxybacillus flavithermus subsp. yunnanensis E13^T” (BMC Biochemistry, 2017).

For orientation: Km means the concentration of substrate that gives half-maximal velocity.

For the data set, the system named is T1, O=[N+]([O-])c1ccc(O[C@@H]2O[C@H](CO)[C@@H](O)[C@H](O)[C@H]2O)cc1.
T1 construct: full-length GH1 enzyme, no signal peptide; gene 1347 bp (448 residues deduced), 52 kDa; pET22b in E. coli BL21 (DE3), heat treatment and Ni-NTA purified
Put plainly: p-nitrophenol release at A410, Lineweaver-Burk. The data set is classed as biochemical, Anoxybacillus flavithermus subsp. yunnanensis. The settings on record: Na2HPO4-citric acid buffer pH 7.0, 60 °C, no added sugar.

Take “BglP (Bglp) (Anoxybacillus flavithermus subsp. yunnanensis)”: the Km is 290 ± 10 µM.
